These results are taken from the supplement of paper PMC11246515.

This series can be described thus: total protein half-life in vivo (active degradation + dilution); higher = more stable protein.
Setting [1] is: E. coli NCM3722 delta-clpP delta-lon delta-hslV, growth: N-lim chemostat, doubling time 6 h.
Where [2] appears, read: E. coli NCM3722 delta-clpP, growth: N-lim chemostat, doubling time 6 h.
Where [3] appears, read: E. coli NCM3722 delta-hslV, growth: N-lim chemostat, doubling time 6 h.
[4] abbreviates: E. coli NCM3722 delta-lon, growth: N-lim chemostat, doubling time 6 h.
Where [5] appears, read: E. coli NCM3722 delta-smpB, growth: N-lim chemostat, doubling time 6 h.
The mark [6] stands for this setting: wild type E. coli NCM3722, growth: C-lim chemostat, doubling time 3 h.
The mark [7] stands for this setting: wild type E. coli NCM3722, growth: C-lim chemostat, doubling time 6 h.
The mark [8] stands for this setting: wild type E. coli NCM3722, growth: C-lim chemostat, doubling time 12 h.
Setting [9] is: wild type E. coli NCM3722, growth: N-lim chemostat, doubling time 6 h.
[10] abbreviates: wild type E. coli NCM3722, growth: N-lim chemostat, doubling time 12 h.
[11] abbreviates: wild type E. coli NCM3722, growth: P-lim chemostat, doubling time 6 h.
Where [12] appears, read: wild type E. coli NCM3722, growth: P-lim chemostat, doubling time 12 h.

± gives the standard deviation of the averaged measurements.

Consider “MLYDKSLERDNCGFGLIAHIEGEPSHKVVRTAIHALARMQHRGAILADGKTGDGCGLLLQKPDRFFRIVAQERGWRLAKNYAVGMLFLNKDPELAAAARRIVEEELQRETLSIVGWRDVPTNEGVLGEIALSSLPRIEQIFVNAPAGWRPRDMERRLFIARRRIEKRLEADKDFYVCSLSNLVNIYKGLCMPTDLPRFYLDLADLRLESAICLFHQRFSTNTVPRWPLAQPFRYLAHNGEINTITGNRQWARARTYKFQTPLIPDLHDAAPFVNETGSDSSSMDNMLELLLAGGMDIIRAMRLLVPPAWQNNPDMDPELRAFFDFNSMHMEPWDGPAGIVMSDGRFAACNLDRNGLRPARYVITKDKLITCASEVGIWDYQPDEVVEKGRVGPGELMVIDTRSGRILHSAETDDDLKSRHPYKEWMEKNVRRLVPFEDLPDEEVGSRELDDDTLASYQKQFNYSAEELDSVIRVLGENGQEAVGSMGDDTPFAVLSSQPRIIYDYFRQQFAQVTNPPIDPLREAHVMSLATSIGREMNVFCEAEGQAHRLSFKSPILLYSDFKQLTTMKEEHYRADTLDITFDVTKTTLEATVKELCDKAEKMVRSGTVLLVLSDRNIAKDRLPVPAPMAVGAIQTRLVDQSLRCDANIIVETASARDPHHFAVLLGFGATAIYPYLAYETLGRLVDTHAIAKDYRTVMLNYRNGINKGLYKIMSKMGISTIASYRCSKLFEAVGLHDDVVGLCFQGAVSRIGGASFEDFQQDLLNLSKRAWLARKPISQGGLLKYVHGGEYHAYNPDVVRTLQQAVQSGEYSDYQEYAKLVNERPATTLRDLLAITPGENAVNIADVEPASELFKRFDTAAMSIGALSPEAHEALAEAMNSIGGNSNSGEGGEDPARYGTNKVSRIKQVASGRFGVTPAYLVNADVIQIKVAQGAKPGEGGQLPGDKVTPYIAKLRYSVPGVTLISPPPHHDIYSIEDLAQLIFDLKQVNPKAMISVKLVSEPGVGTIATGVAKAYADLITIAGYDGGTGASPLSSVKYAGCPWELGLVETQQALVANGLRHKIRLQVDGGLKTGVDIIKAAILGAESFGFGTGPMVALGCKYLRICHLNNCATGVATQDDKLRKNHYHGLPFKVTNYFEFIARETRELMAQLGVTRLVDLIGRTDLLKELDGFTAKQQKLALSKLLETAEPHPGKALYCTENNPPFDNGLLNAQLLQQAKPFVDERQSKTFWFDIRNTDRSVGASLSGYIAQTHGDQGLAADPIKAYFNGTAGQSFGVWNAGGVELYLTGDANDYVGKGMAGGLIAIRPPVGSAFRSHEASIIGNTCLYGATGGRLYAAGRAGERFGVRNSGAITVVEGIGDNGCEYMTGGIVCILGKTGVNFGAGMTGGFAYVLDESGDFRKRVNPELVEVLSVDALAIHEEHLRGLITEHVQHTGSQRGEEILANWSTFATKFALVKPKSSDVKALLGHRSRSAAELRVQAQ”, for which the “total protein half-life in vivo” value is, setting by setting: under setting [1], 6.38 ± 0.89 h; under setting [2], 6.254 ± 0.044 h; under setting [3], 4.18 ± 0.16 h; under setting [4], 4.437 ± 0.013 h; under setting [5], 4.06 ± 0.1 h; under setting [6], 2.72 ± 0.22 h. The “total protein half-life in vivo” value is 4.89 ± 0.053 h under setting [7]; 8.46 ± 0.56 h under setting [8]; 3.92 ± 0.12 h under setting [9]; 6.4 ± 0.52 h under setting [10]; 5.31 ± 0.17 h under setting [11]; 8.43 ± 0.51 h under setting [12].
For “MKALSPIAVLISALLLQGCVAAAVVGTAAVGTKAATDPRSVGTQVDDGTLEVRVNSALSKDEQIKKEARINVTAYQGKVLLVGQSPNAELSARAKQIAMGVDGANEVYNEIRQGQPIGLGEASNDTWITTKVRSQLLTSDLVKSSNVKVTTENGEVFLMGLVTEREAKAAADIASRVSGVKRVTTAFTFIK”, the “total protein half-life in vivo” value was found to be 5.42 ± 0.59 h under setting [1]; 6.43 ± 0.3 h under setting [3]; 6.34 ± 0.34 h under setting [4]; 5.71 ± 0.1 h under setting [5]; 3.05 ± 0.21 h under setting [6]; 5.72 ± 0.47 h under setting [7]. For the same sequence, the “total protein half-life in vivo” value by setting is: under setting [8], 10.5 ± 1.7 h; under setting [9], 5.86 ± 0.3 h; under setting [10], 11.9 ± 0.14 h; under setting [11], 5.78 ± 0.22 h; under setting [12], 12.3 ± 0.21 h.
Consider “MSNILIINGAKKFAHSNGQLNDTLTEVADGTLRDLGHDVRIVRADSDYDVKAEVQNFLWADVVIWQMPGWWMGAPWTVKKYIDDVFTEGHGTLYASDGRTRKDPSKKYGSGGLVQGKKYMLSLTWNAPMEAFTEKDQFFHGVGVDGVYLPFHKANQFLGMEPLPTFIANDVIKMPDVPRYTEEYRKHLVEIFG [P0AEY5]”, for which the “total protein half-life in vivo” value is, setting by setting: under setting [2], 1.93 ± 0.14 h; under setting [3], 1.94 ± 0.091 h; under setting [4], 2.18 ± 0.044 h; under setting [5], 2.27 ± 0.32 h; under setting [6], 3.31 ± 0.43 h; under setting [7], 4.76 ± 0.2 h. The “total protein half-life in vivo” value amounted to 6.6 ± 0.75 h under setting [8], 2.12 ± 0.18 h under setting [9] and 8.32 ± 0.26 h under setting [12].
With “MSHVELQPGFDFQQAGKEVLAIERECLAELDQYINQNFTLACEKMFWCKGKVVVMGMGKSGHIGRKMAATFASTGTPSFFVHPGEAAHGDLGMVTPQDVVIAISNSGESSEITALIPVLKRLHVPLICITGRPESSMARAADVHLCVKVAKEACPLGLAPTSSTTATLVMGDALAVALLKARGFTAEDFALSHPGGALGRKLLLRVNDIMHTGDEIPHVKKTASLRDALLEVTRKNLGMTVICDDNMMIEGIFTDGDLRRVFDMGVDVRQLSIADVMTPGGIRVRPGILAVEALNLMQSRHITSVMVADGDHLLGVLHMHDLLRAGVV”, the “total protein half-life in vivo” value by setting is: under setting [2], 4.95 ± 1.9 h; under setting [3], 4.36 ± 0.2 h; under setting [4], 4.95 ± 0.44 h; under setting [5], 4.2 ± 0.2 h; under setting [6], 2.92 ± 0.13 h; under setting [7], 5.27 ± 0.15 h. Besides, the “total protein half-life in vivo” value reads like this: under setting [8], 10.3 ± 2.3 h; under setting [9], 4.29 ± 0.37 h; under setting [10], 7.36 ± 0.41 h; under setting [11], 5.827 ± 0.055 h; under setting [12], 11.6 ± 0.54 h.
Take “MSESAFKDCFLTDVSADTRLFHFLARDYIVQEGQQPSWLFYLTRGRARLYATLANGRVSLIDFFAAPCFIGEIELIDKDHEPRAVQAIEECWCLALPMKHYRPLLLNDTLFLRKLCVTLSHKNYRNIVSLTQNQSFPLVNRLAAFILLSQEGDLYHEKHTQAAEYLGVSYRHLLYVLAQFIHDGLLIKSKKGYLIKNRKQLSGLALEMDPENKFSGMMQ [P0A9E9]”: the “total protein half-life in vivo” value was found to be 1.56 h under setting [6] and 2.53 h under setting [8].
In the case of “MHQSGSVSLCRSAISVLVATALYSPIALASTVEYGETVDGVVLEKDIQLVYGTANNTKINPGGEQHIKEFGVSNNTEINGGYQYIEMNGAAEYSVLNDGYQIVQMGGAANQTTLNNGVLQVYGAANDTTIKGGRLIVEKDGGAVFVAIEKGGLLEVKEGGFAFAVDQKAGGAIKTTTRAMEVFGTNRLGQFDIKNGIANNMLLENGGSLRVEENDFAYNTTVDSGGLLEVMDGGTVTGVDKKAGGKLIVSTNALEVSGPNSKGQFSIKDGVSKNYELDDGSGLIVMEDTQAIDTILDKHATMQSLGKDTGTKVQANAVYDLGRSYQNGSITYSSKAISENMVINNGRANVWAGTMVNVSVRGNDGILEVMKPQINYAPAMLVGKVVVSEGASFRTHGAVDTSKADVSLENSVWTIIADITTTNQNTLLNLANLAMSDANVIMMDEPVTRSSVTASAENFITLTTNTLSGNGNFYMRTDMANHQSDQLNVTGQATGDFKIFVTDTGASPAAGDSLTLVTTGGGDAAFTLGNAGGVVDIGTYEYTLLDNGNHSWSLAENRAQITPSTTDVLNMAAAQPLVFDAELDTVRERLGSVKGVSYDTAMWSSAINTRNNVTTDAGAGFEQTLTGLTLGIDSRFSREESSTIRGLIFGYSHSDIGFDRGGKGNIDSYTLGAYAGWEHQNGAYVDGVVKVDRFANTIHGKMSNGATAFGDYNSNGAGAHVESGFRWVDGLWSVRPYLAFTGFTTDGQDYTLSNGMRADVGNTRILRAEAGTAVSYHMDLQNGTTLEPWLKAAVRQEYADSNQVKVNDDGKFNNDVAGTSGVYQAGIRSSFTPTLSGHLSVSYGNGAGVESPWNTQAGVVWTF”, the “total protein half-life in vivo” value under setting [1] was found to be 5.12 h.
Consider “MPLLDSFTVDHTRMEAPAVRVAKTMNTPHGDAITVFDLRFCVPNKEVMPERGIHTLEHLFAGFMRNHLNGNGVEIIDISPMGCRTGFYMSLIGTPDEQRVADAWKAAMEDVLKVQDQNQIPELNVYQCGTYQMHSLQEAQDIARSILERDVRINSNEELALPKEKLQELHI”, for which the “total protein half-life in vivo” value runs as follows: under setting [1], 5.42 ± 0.74 h; under setting [2], 4.79 ± 0.64 h; under setting [3], 4.37 ± 0.6 h; under setting [4], 4.38 ± 0.28 h; under setting [5], 3.97 ± 0.12 h; under setting [6], 2.71 ± 0.32 h. For the same sequence, the “total protein half-life in vivo” value was determined as 4.05 ± 0.31 h under setting [7]; 7.07 ± 0.68 h under setting [8]; 3.61 ± 0.1 h under setting [9]; 5.61 ± 0.47 h under setting [10]; 4.72 ± 0.19 h under setting [11]; 9.47 ± 0.63 h under setting [12].
